Residue numbers refer to the chain shown, from its start. Numbered stars: 1 amine (or outer) side, 2 acyl side, 3 side chain; on linkers, the order of the positions; unused ones are H or OH. Bridge positions count the residues as written; N and C are the ends. Square brackets hold non-standard residues; d marks the D form. Primed or numbered codes have the meaning given here. Ends that are not written are not given here. * marks the point of attachment. thioacetal = thioacetal linkage between two cysteines (intrachain bond at the bracketed Cys); C20 diacid = O=C(O)CCCCCCCCCCCCCCCCCCC(=O)*; γGlu = O=C(O)[C@H](CCC(=O)[*:2])N[*:1]; 4Pal = N[C@@H](Cc1ccncc1)C(=O)O; thioacetal″ = not defined here; βAla = NCCC(=O)O
B1: Example 80 (peptide)
peptide: {C20 diacid}-[γGlu]EKEKEKGS[4Pal]RRSSCFGRKIDRIGHQSGLGCPSFRHGGKSSGAPPPS-NH2
modifications: bridge 15-31 via thioacetal
B2: Example 79 (peptide)
peptide: {C20 diacid}-[γGlu]EKEKEKGS[4Pal]RRSSCFGKRIDRIGHQSGLGCPSFRHGGKSSGAPPPS-NH2
modifications: bridge 15-31 via thioacetal
B3: Example 90 (peptide)
peptide: EK[βAla]RSSCFGKRIDRIGHQSGLGCPSFRHGGKSSGAPPPS-NH2
modifications: bridge 7-23 via thioacetal; not fully specified (N-terminus)
B4: Example 81 (peptide)
peptide: {C20 diacid}-[γGlu]EKEKEKGS[4Pal]RRSSCFGKRIDRIGHYSGLGCPSFRHGGKSSGAPPPS-NH2
modifications: bridge 15-31 via thioacetal″; reading uncertain
B5: Example 75 (peptide)
peptide: SXRRSSCFGGRIDRIGHQSGLGCPSFRHGGKSSGAPPPS
modifications: HOOC-(CH2)18-CO-(γGlu)-EKEKEKG-PEG24-S-4Pal-RRSS[CFGGRIDRIGHQSGLGC]PSFRHGGKSSGAPPPS-NH2; thioacetal linkage between the bracketed Cys
B6: Example 87 (peptide)
peptide: B5 peptide with G10K
modifications: HOOC-(CH2)18-CO-(γGlu)-EKEKEKG-(AEEA)8-S-4Pal-RRSS[CFGKRIDRIGHQSGLGC]PSFRHGGKSSGAPPPS-NH2; thioacetal linkage between the bracketed Cys
B7: Example 96 (peptide)
peptide: B5 peptide with Q18Y, G30S, K31P
modifications: HOOC-(CH2)18-CO-(γGlu)-EKEKEKG-(AEEA)6-S-4Pal-RRSS[CFGGRIDRIGHYSGLGC]PSFRHGSPSSGAPPPS-NH2; thioacetal linkage between the bracketed Cys
B8: Example 91 (peptide)
peptide: B5 peptide with Q18Y
modifications: HOOC-(CH2)18-CO-(γGlu)-EKEKEKG-(AEEA)8-S-4Pal-RRSS[CFGGRIDRIGHYSGLGC]PSFRHGGKSSGAPPPS-NH2; thioacetal linkage between the bracketed Cys
B9: Example 89 (peptide)
peptide: B5 peptide with S1E, X2K, R3X, G10K
modifications: HOOC-(CH2)18-CO-(γGlu)-EKEKEKG-(AEEA)6-EK-βAla-RSS[CFGKRIDRIGHQSGLGC]PSFRHGGKSSGAPPPS-NH2; thioacetal linkage between the bracketed Cys
B10: Example 95 (peptide)
peptide: B5 peptide with Q18Y
modifications: HOOC-(CH2)18-CO-(γGlu)-EKEKEKG-PEG24-S-4Pal-RRSS[CFGGRIDRIGHYSGLGC]PSFRHGGKSSGAPPPS-NH2; thioacetal linkage between the bracketed Cys
B11: Example 83 (peptide)
peptide: B5 peptide
modifications: HOOC-(CH2)18-CO-(γGlu)-EKEKEKG-(AEEA)4-S-4Pal-RRSS[CFGGRIDRIGHQSGLGC]PSFRHGGKSSGAPPPS-NH2; thioacetal linkage between the bracketed Cys
B12: Example 92 (peptide)
peptide: B5 peptide with Q18Y
modifications: HOOC-(CH2)18-CO-(γGlu)-EKEKEKG-(AEEA)6-S-4Pal-RRSS[CFGGRIDRIGHYSGLGC]PSFRHGGKSSGAPPPS-NH2; thioacetal linkage between the bracketed Cys
B13: Example 82 (peptide)
peptide: B5 peptide
modifications: HOOC-(CH2)18-CO-(γGlu)-EKEKEKG-PEG12-S-4Pal-RRSS[CFGGRIDRIGHQSGLGC]PSFRHGGKSSGAPPPS-NH2; thioacetal linkage between the bracketed Cys
B14: Example 86 (peptide)
peptide: B5 peptide
modifications: HOOC-(CH2)18-CO-(γGlu)-EKEKEKG-(AEEA)6-S-4Pal-RRSS[CFGGRIDRIGHQSGLGC]PSFRHGGKSSGAPPPS-NH2; thioacetal linkage between the bracketed Cys
B15: Example 88 (peptide)
peptide: B5 peptide with S1E, X2K, R3X, G10K
modifications: HOOC-(CH2)18-CO-(γGlu)-EKEKEKG-(AEEA)4-EK-βAla-RSS[CFGKRIDRIGHQSGLGC]PSFRHGGKSSGAPPPS-NH2; thioacetal linkage between the bracketed Cys
B16: Example 76 (peptide)
peptide: {C20 diacid}-[γGlu]EKEKEKGEK[βAla]RSSCFGGRIDRIGHYSGLGCPSFRHGGKSSGAPPPS-NH2
modifications: bridge 15-31 via thioacetal
B17: Example 6 (peptide)
peptide: EKXRSSCFGGKIDRIGHYSGLGCPSFRHGSPSSGAPPPS
modifications: HOOC-(CH2)18-CO-(γGlu)-EKEKEKG-PEG24-EK-βAla-RSS[CFGGKIDRIGHYSGLGC]PSFRHGSPSSGAPPPS-NH2; thioacetal linkage between the bracketed Cys
B18: Example 98 (peptide)
peptide: B17 peptide with K11R
modifications: HOOC-(CH2)18-CO-(γGlu)-EKEKEKG-(AEEA)6-EK-βAla-RSS[CFGGRIDRIGHYSGLGC]PSFRHGSPSSGAPPPS-NH2; thioacetal linkage between the bracketed Cys
B19: Example 7 (peptide)
peptide: B17 peptide with Y18Q
modifications: HOOC-(CH2)18-CO-(γGlu)-EKEKEKG-PEG24-EK-βAla-RSS[CFGGKIDRIGHQSGLGC]PSFRHGSPSSGAPPPS-NH2; thioacetal linkage between the bracketed Cys
B20: Example 84 (peptide)
peptide: SXRRSSCFGGRIDRIGHQSGLGCPSFRHGGPPSXKPPPK
modifications: HOOC-(CH2)18-CO-(γGlu)-EKEKEKG-PEG24-S-4Pal-RRSS[CFGGRIDRIGHQSGLGC]PSFRHGGPPS-Aib-KPPPK-NH2; thioacetal linkage between the bracketed Cys

Each binder was assayed against T1, rat NPRA (rat, UniProt P18910 29-1057) (assay: cell-based or functional assay).
T1 sequence (looked up): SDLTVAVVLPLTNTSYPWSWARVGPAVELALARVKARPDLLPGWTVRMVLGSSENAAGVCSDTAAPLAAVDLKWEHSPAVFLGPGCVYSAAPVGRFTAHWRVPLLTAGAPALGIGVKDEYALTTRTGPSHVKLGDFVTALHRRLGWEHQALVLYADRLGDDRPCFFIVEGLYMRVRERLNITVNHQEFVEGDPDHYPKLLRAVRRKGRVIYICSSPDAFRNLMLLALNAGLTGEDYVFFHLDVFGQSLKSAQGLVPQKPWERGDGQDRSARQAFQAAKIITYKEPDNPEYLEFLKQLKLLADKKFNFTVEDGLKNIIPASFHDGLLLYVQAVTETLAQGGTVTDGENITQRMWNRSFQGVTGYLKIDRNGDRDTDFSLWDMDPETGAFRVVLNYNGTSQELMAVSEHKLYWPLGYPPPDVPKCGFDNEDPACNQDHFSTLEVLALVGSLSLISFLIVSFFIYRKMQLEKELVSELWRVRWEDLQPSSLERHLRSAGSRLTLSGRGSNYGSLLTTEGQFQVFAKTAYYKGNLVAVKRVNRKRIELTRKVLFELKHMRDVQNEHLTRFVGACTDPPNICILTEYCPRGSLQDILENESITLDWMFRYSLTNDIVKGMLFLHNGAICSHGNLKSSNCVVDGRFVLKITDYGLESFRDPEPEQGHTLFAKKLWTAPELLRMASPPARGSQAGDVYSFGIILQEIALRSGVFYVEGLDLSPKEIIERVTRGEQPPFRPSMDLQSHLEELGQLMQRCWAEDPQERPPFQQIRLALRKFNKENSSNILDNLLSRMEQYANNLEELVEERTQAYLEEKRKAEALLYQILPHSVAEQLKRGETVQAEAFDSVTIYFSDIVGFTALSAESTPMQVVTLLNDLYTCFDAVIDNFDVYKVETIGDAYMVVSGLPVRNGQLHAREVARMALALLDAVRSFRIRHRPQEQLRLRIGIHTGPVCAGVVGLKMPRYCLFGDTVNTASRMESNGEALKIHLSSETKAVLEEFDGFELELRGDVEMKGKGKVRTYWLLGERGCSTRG

Binder	cGMP Assay (EC50, pM) w/BSA [pM]	cGMP Assay (EC50, pM) w/Casein [pM]
B1	364000	3550
B2	261000	3440
B3	734000	13200
B4	127000	1910
B5	533000	23800
B6	463000	8870
B7	401000	12200
B8	549000	16200
B9	819000	13800
B10	322000	12300
B11	860000	16700
B12	290000	12400
B13	836000	25400
B14	868000	17900
B15	1.05e+06	11400
B16	607000	8280
B17	596000	30500
B18	–	17900
B19	1.17e+06	184000
B20	547000	24600

The binders below were run against T2, human NPRA (human, UniProt P16066 33-1061) (assay: cell-based or functional assay).
T2 sequence (looked up): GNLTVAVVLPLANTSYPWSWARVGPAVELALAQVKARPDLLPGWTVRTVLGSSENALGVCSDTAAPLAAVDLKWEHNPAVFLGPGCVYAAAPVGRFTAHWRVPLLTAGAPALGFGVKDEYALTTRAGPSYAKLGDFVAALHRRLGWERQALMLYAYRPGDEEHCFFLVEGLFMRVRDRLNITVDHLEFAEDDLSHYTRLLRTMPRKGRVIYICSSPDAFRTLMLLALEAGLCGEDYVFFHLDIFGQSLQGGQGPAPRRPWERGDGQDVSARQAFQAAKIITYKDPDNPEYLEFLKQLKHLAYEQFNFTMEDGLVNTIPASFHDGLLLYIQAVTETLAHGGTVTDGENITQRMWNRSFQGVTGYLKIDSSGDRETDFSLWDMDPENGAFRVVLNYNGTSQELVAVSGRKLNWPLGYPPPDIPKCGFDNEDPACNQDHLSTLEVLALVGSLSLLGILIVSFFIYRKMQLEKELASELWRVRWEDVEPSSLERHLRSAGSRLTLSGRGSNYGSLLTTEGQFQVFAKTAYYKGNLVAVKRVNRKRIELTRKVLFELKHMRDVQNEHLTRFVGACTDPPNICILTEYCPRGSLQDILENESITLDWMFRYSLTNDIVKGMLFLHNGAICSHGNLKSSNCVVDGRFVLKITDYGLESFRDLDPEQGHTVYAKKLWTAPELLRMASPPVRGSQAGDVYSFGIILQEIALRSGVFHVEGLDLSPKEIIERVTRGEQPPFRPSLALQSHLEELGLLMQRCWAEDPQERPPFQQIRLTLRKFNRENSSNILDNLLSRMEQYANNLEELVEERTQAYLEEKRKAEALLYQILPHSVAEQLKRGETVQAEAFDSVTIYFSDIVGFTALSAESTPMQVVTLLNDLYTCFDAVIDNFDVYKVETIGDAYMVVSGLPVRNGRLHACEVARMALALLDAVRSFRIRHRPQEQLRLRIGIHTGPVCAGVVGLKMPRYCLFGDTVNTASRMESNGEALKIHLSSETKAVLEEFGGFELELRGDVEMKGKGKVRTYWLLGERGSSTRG

Binder	cGMP Assay (EC50, pM) w/BSA [pM]	cGMP Assay (EC50, pM) w/Casein [pM]
B1	4750	234
B2	4580	273
B3	19700	452
B4	5710	388
B5	17000	1060
B6	3380	621
B7	12700	720
B8	13900	1000
B9	10800	806
B10	7030	771
B11	38400	1040
B12	10100	772
B13	32600	623
B14	25200	1020
B15	16300	520
B16	79900	2620
B17	33300	1530
B18	–	1840
B19	69600	5670
B20	9730	1010

— patent US20240174727A1, “LONG-ACTING NATRIURETIC PEPTIDES AND USES THEREOF” (Eli Lilly and Company, priority 2022, published 2024)
